Substitutions are numbered along the chain they refer to. One block for each binder: values may come before it.
How the values were obtained:
[1] = biological target: T1, Human IgA (recombinant, H (WT)-IgA1 / L (WT)) (human); assay: SPR (Biacore T200), antibody on Protein A/G, hIgA analyte, 37C; pH 8.0, 0.1 µM Ca; 1:1 binding model
T1 construct: used as the antigen (analyte); also called hIgA
Experimental: (§1) The hIgA-binding activities (dissociation constant KD (M)) of the antibodies isolated in (1-3) were assessed using Biacore T200 (GE Healthcare). Measurements were performed using a 0.05% tween20, 20 mmol/L ACES, 150 mmol/L NaCl (pH 7.4 or pH 5.8) solution containing 3 μM or 1.2 mM CaCl₂, or a 0.05% tween20, 20 mmol/L ACES, 150 mmol/L NaCl (pH 8.0) solution containing 0.1 μM or 10 mM CaCl₂ as a running buffer.
(§2) An appropriate amount of recombinant Protein A/G (Thermo Scientific) was immobilized onto a Sensor chip CMS (GE Healthcare) by an amino coupling method, and the antibody was allowed to bind thereto. Then, an appropriate concentration of hIgA (described in (1-1)) was injected as an analyte and allowed to interact with the antibody on the sensor chip. The measurement was carried out at 37° C. After measurement, 10 mmol/L glycine-HCl (pH 1.5) was injected to regenerate the sensor chip. From the measurement result, the dissociation constant KD (M) was calculated by curve fitting analysis and equilibrium analysis using Biacore T200 Evaluation Software (GE Healthcare).

[2] = biological target: T1, Human IgA (recombinant, H (WT)-IgA1 / L …); assay: SPR (Biacore T200), antibody on Protein A/G, hIgA analyte, 37C; pH 5.8, 1.2 mM Ca; 1:1 binding model
Experimental: as §1, §2

[3] = biological target: T1, Human IgA (recombinant, H (WT)-IgA1 / L …); assay: SPR (Biacore T200), antibody on Protein A/G, hIgA analyte, 37C; pH 7.4, 1.2 mM Ca; 1:1 binding model
Experimental: as §1, §2

[4] = biological target: T1, Human IgA (recombinant, H (WT)-IgA1 / L …); assay: SPR (Biacore T200), antibody on Protein A/G, hIgA analyte, 37C; pH 5.8, 3 µM Ca; 1:1 binding model
Experimental: as §1, §2

[5] = biological target: T1, Human IgA (recombinant, H (WT)-IgA1 / L …); assay: SPR (Biacore T200), antibody on Protein A/G, hIgA analyte, 37C; pH 7.4, 3 µM Ca; 1:1 binding model
Experimental: as §1, §2

[6] = biological target: T1, Human IgA (recombinant, H (WT)-IgA1 / L …); assay: SPR (Biacore T200), antibody on Protein A/G, hIgA analyte, 37C; pH 8.0, 10 mM Ca; 1:1 binding model
Experimental: as §1, §2

[7] = biological target: T2, human IgA (hIgA) (human); assay: SPR (Reference Example 3)
T2 construct: recombinant antigen
Experimental: as §1, §2

[8] = biological target: T1, Human IgA (recombinant, H (WT)-IgA1 / L …); assay: SPR (Biacore T200), antibody on Protein A/G, hIgA analyte, 37C; pH 7.4, 3 µM Ca; Steady State Affinity
Experimental: as §1, §2

[9] = biological target: T1, Human IgA (recombinant, H (WT)-IgA1 / L …); assay: SPR (Biacore T200), antibody on Protein A/G, hIgA analyte, 37C; pH 7.4, 1.2 mM Ca; 1:1 binding model; pH 7.4, 1.2 mM Ca; 37 C; 1:1 binding model
Experimental: as §1, §2

[10] = biological target: T1, Human IgA (recombinant, H (WT)-IgA1 / L …); assay: SPR (Biacore T200), antibody on Protein A/G, hIgA analyte, 37C; pH 5.8, 3 µM Ca; Steady State Affinity
Experimental: as §1, §2

[11] = biological target: T1, Human IgA (recombinant, H (WT)-IgA1 / L …); assay: SPR (Biacore T200), antibody on Protein A/G, hIgA analyte, 37C; pH 5.8, 1.2 mM Ca; Steady State Affinity
Experimental: as §1, §2

[12] = biological target: T3, human IgE (human); assay: SPR Biacore T200, 37 C; pH/Ca dependency
T3 construct: recombinant antigen; its variable region is from an anti-human glypican 3 antibody; also called hIgE
From the text: (§3) 1.2 mmol/1 CaCl₂/0.05% tween20, 20 mmol/l ACES, 150 mmol/l NaCl, pH 7.4 [0568] 1.2 mmol/1 CaCl₂/0.05% tween20, 20 mmol/l ACES, 150 mmol/l NaCl, pH 5.8 [0569] 3 μmol/l CaCl₂/0.05% tween20, 20 mmol/l ACES, 150 mmol/l NaCl, pH 5.8
(§4) A peptide produced by adding biotin to Lys present at the C terminus of a chemically synthesized human glypican 3 protein-derived sequence (SEQ ID NO: 12) (hereinafter written as “biotinylated GPC3 peptide”) added at an appropriate amount was immobilized onto Sensor chip SA (GE Healthcare) utilizing the affinity between streptavidin and biotin. An appropriate concentration of human IgE was injected and trapped with the biotinylated GPC3 peptide to immobilize human IgE onto the chip. […] Then, 10 mmol/L glycine-HCl (pH 1.5) was injected to regenerate the sensor chip. All of the assay for the interaction was performed at 37° C. Using Biacore T200 Evaluation Software (GE Healthcare), the assay results were analyzed by curve fitting to determine the binding rate constant ka (1/Ms) and dissociation rate constant kd (1/s). Dissociation constant KD (M) was calculated from the above constants.

[13] = biological target: T3, human IgE; assay: SPR Biacore T200, 37 C, hIgE on chip, antibody analyte; pH 5.8, 3 µM Ca
From the text: as §3, §4

[14] = biological target: T3, human IgE; assay: SPR Biacore T200, 37 C; pH dependency
From the text: as §3, §4

[15] = biological target: T3, human IgE; assay: SPR Biacore T200, 37 C, hIgE on chip, antibody analyte; pH 7.4, 1.2 mM Ca
From the text: as §3, §4

[16] = biological target: T3, human IgE; assay: SPR Biacore T200, 37 C, hIgE on chip, antibody analyte; pH 5.8, 1.2 mM Ca
From the text: as §3, §4

[17] = biological target: T4, FcγRIIb extracellular domain with C-terminal His tag (human, UniProt P31994 43-217); assay: SPR (Biacore); KD of IL6R-B3/IL6R-L / KD of variant
T4 construct: extracellular domain; also called FcgRIIb
T4 sequence (looked up): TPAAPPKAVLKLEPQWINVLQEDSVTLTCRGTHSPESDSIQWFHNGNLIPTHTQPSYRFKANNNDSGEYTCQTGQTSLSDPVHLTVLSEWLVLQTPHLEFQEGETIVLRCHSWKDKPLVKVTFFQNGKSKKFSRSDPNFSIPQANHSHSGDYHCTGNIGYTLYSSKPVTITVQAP

[18] = biological target: T5, FcγRIa extracellular domain with C-terminal His tag (human, UniProt P12314 16-292); assay: SPR (Biacore), FcgR as analyte
T5 construct: also called FcgRIa

[19] = biological target: T4, FcγRIIb extracellular domain with …; assay: SPR (Biacore), FcgR as analyte
[20] = biological target: T6, mouse FcγRIV (mouse, UniProt A0A0B4J1G0 21-203); assay: SPR
T6 construct: also called mFcγRIV
T6 sequence: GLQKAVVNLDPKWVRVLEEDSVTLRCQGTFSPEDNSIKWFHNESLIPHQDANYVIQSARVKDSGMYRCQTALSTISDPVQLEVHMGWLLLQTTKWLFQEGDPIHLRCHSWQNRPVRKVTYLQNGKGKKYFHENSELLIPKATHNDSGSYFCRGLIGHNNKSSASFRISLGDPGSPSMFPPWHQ

[21] = biological target: T7, mouse FcγRI (mouse, UniProt P26151 25-297, limits assumed); assay: SPR
T7 construct: also called mFcγRI
T7 sequence (looked up): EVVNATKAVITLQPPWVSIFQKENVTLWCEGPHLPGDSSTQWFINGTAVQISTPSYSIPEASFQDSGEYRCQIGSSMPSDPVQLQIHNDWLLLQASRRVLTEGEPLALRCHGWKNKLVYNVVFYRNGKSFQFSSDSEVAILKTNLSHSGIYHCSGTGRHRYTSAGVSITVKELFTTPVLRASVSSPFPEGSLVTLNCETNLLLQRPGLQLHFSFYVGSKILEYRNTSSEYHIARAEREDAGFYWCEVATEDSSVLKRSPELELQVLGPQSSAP

T3 sequence (heavy, as listed by the source, chain 1 of 2, other chains not shown): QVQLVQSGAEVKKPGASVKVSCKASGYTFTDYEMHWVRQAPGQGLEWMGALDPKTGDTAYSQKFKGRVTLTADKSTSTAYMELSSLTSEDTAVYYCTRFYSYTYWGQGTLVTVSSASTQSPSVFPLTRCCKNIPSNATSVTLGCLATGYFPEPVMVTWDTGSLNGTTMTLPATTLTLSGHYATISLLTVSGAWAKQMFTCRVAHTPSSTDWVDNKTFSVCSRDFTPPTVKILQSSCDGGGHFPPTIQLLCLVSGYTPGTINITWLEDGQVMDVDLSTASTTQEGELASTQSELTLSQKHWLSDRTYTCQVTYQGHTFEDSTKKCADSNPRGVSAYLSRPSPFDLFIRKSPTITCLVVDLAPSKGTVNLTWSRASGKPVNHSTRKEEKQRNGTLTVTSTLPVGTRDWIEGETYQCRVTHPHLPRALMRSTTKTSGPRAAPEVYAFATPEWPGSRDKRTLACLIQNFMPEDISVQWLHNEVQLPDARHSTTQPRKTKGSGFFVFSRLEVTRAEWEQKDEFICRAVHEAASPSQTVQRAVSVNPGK
T1 sequence (VH, as listed by the source): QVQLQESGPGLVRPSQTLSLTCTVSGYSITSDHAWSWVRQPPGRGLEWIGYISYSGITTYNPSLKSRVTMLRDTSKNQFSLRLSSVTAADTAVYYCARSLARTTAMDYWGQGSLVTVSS
T2 sequence (VH, as listed by the source): as above
T5 sequence (P12314 16-292): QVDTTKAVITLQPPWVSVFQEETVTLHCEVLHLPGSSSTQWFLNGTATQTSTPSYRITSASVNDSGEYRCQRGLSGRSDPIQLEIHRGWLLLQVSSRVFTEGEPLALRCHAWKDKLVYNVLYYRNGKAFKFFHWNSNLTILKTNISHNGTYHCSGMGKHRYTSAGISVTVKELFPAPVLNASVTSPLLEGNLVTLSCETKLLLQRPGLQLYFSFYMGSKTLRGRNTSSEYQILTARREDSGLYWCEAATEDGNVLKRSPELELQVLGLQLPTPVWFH

- KD(pH 5.8, 3 µM Ca)/KD(pH 7.4, 1.2 mM Ca) [12]: 1640 ratio
- Kd [13]: 3900 nM
- koff [13]: 0.24 s⁻¹
- kon [13]: 62000 M⁻¹ s⁻¹
- KD(pH 5.8, 1.2 mM Ca)/KD(pH 7.4, 1.2 mM Ca) [14]: 842 ratio
- Kd [15]: 2.4 nM
- koff [15]: 0.0036 s⁻¹
- kon [15]: 1.5e+06 M⁻¹ s⁻¹
- Kd [16]: 2000 nM
- koff [16]: 0.23 s⁻¹
- kon [16]: 120000 M⁻¹ s⁻¹
B4: clone 278 (IgG1) (antibody, V domains shown)
VH: QSLEESGGRLVTPGTPLTLTCTASGFSLSSYHMSWVRQAPGKGLEWIGVINSAGNTYYASWAKGRFTVSKTSTTVDLNLTSLTTEDTATYFCARYVFSSGSHDIWGPGTLVTVSS
VL: AYDMTQTPASVEVAVGGTVTIKCQASQSIGSWLAWYQQKPGQPPKELIYGTSTLESGVPSRFIGSGSGTEFTLTISGVECADAATYYCQQGYSEDNIDNAFGGGTEVVVKR
notes: pH-dependent anti-human IgE antibody with human IgG1 constant region

- Relative FcgRIIb-binding Activity [17]: 15.7 fold vs IL6R-B3/IL6R-L
- Kd [18]: 11 nM
- Kd [19]: 200 nM
B5: IL6R-BP198/IL6R-L (antibody, human IgG1, kappa, name in EU numbering)
heavy: QVQLQESGPGLVKPSETLSLTCAVSGHSISHDHAWSWVRQPPGEGLEWIGFISYSGITNYNPSLQGRVTISRDNSKNTLYLQMNSLRAEDTAVYYCARSLARTTAMDYWGEGTLVTVSSASTKGPSVFPLAPSSKSTSGGTAALGCLVKDYFPEPVTVSWNSGALTSGVHTFPAVLQSSGLYSLSSVVTVPSSSLGTQTYICNVNHKPSNTKVDKKVEPKSCDKTHTCPPCPAPDYLGGDSVFLFPPKPKDTLMISRTPEVTCVVVDVSDEDGEVKFNWYVDGVEVHNAKTKPREEQYNSTYRVVSVLTVLHQDWLNGKEYKCKVSNAALPKPIEKTISKAKGQPREPQVYTLPPSRDELTKNQVSLTCLVKGFYPSDIAVEWESNGQPENNYKTTPPVLDSDGSFFLYSKLTVDKSRWQQGNVFSCSVMHEALHNHYTQESLSLSP
light: not shown
notes: IgG1; alterations on IL6R-B3, EU numbering

- binding result [20]: no binding
- binding result [21]: no binding
B6: VH3/L (WT)-mIgG1 (antibody)
heavy: QVQLQESGPGLVKPSETLSLTCAVSGHSISHDHAWSWVRQPPGEGLEWIGFISYSGITNYNPSLQGRVTISRDNSKNTLYLQMNSLRAEDTAVYYCARSLARTTAMDYWGEGTLVTVSSAKTTPPSVYPLAPGSAAQTNSMVTLGCLVKGYFPEPVTVTWNSGSLSSGVHTFPAVLQSDLYTLSSSVTVPSSTWPSETVTCNVAHPASSTKVDKKIVPRDCGCKPCICTVPEVSSVFIFPPKPKDVLTITLTPKVTCVVVDISKDDPEVQFSWFVDDVEVHTAQTQPREEQFNSTFRSVSELPIMHQDWLNGKEFKCRVNSAAFPAPIEKTISKTKGRPKAPQVYTIPPPKEQMAKDKVSLTCMITDFFPEDITVEWQWNGQPAENYKNTQPIMDTDGSYFVYSKLNVQKSNWEAGNTFTCSVLHEGLHNHHTEKSLSHSPGK
light: not shown
notes: mouse IgG1 Fc region

Continued, binder first:

B1: GA1-IgG1 (antibody, V domains shown)
VH: EVQLVQSGAEVKKPGSSVKVSCKASGGTFSSYAISWVRQAPGQGLEWMGGIIPIFGTANYAQKFQGRVTITADESTSTAYMELSSLRSEDTAVYYCARVAPGNWGSPYFDYWGQGTLVTVSS
VL: DIQMTQSPSSLSASVGDRVTITCRASQSIEDDLAWYQQKPGKAPKLLIYEASSLQSGVPSRFSGSGSGTDFTLTISSLQPEDFATYYCQQRDSSPLTFGQGTKVEIKR
- Kd [1]: 220 nM
- Kd [2]: 140 nM
- Kd [3]: 150 nM
- Kd [4]: 150 nM
- Kd [5]: 190 nM
- Kd [6]: 100 nM

B2: GA2-IgG1 (antibody, V domains shown)
VH: QVQLVQSGAEVKKPGSSVKVSCKASGGTFSSYAISWVRQAPGQGLEWMGGIIPIFGTANYAQKFQGRVTITADESTSTAYMELSSLRSEDTAVYYCARPRWETAISSDAFDIWGQGTMVTVSS
VL: B1 VL with E30S, A34N, S53N, R91H, D92S
notes: also called GA-IgG1
- Ca-dependent hIgA-binding activity (fold) [7]: ≥ 100 times

B3: GA2-IgG1 (antibody, V domains shown)
VH: B2 VH
VL: B1 VL with E30S, A34N, S53N, R91H, D92S
- Kd [8]: 6700 nM
- kon [9]: 400000 M⁻¹ s⁻¹
- Kd [10]: 5000 nM
- Kd [3]: 39 nM
- Kd [11]: 4000 nM

From patent publication US20220411483A1 (Chugai, published 2022)
